Experimental data from the DeepSol protein solubility set.

assay: soluble on expression in E. coli; label from the status in PepcDB or PDB records

Row | Sequence | soluble on expression in E. coli
1 | MGSDKIHHHHHHMPEILINKPVEDELVESYLLYSMSVIVGRAIPDVRDGLKPVQRRILYGMYELGLKHNSPTKKSARIVGEVMGKYHPHGDAPVYDALVRMAQPFTMRYPLIEGQGNFGSIDRDPPAAMRYTEARLTRLAEEMLEDIEKNTVNMIDNFDGTLKEPEVLPSKVPNLIINGASGIAVGMATNIPPHNLSETVDALIYLIDHPEATVEELMQFIKGPDFPTGAVVVNASELKKVYEEGRGRIIVRGKVHVEDGKRVKRIVITEIPYGVSKAGLIEQIAKIAKDDESLPIRNIRDESDKRGMRIVIEIPKDANEEVIINNLYKRTALQDYFNVQMLVIDKHKRPRLMNLKGLMEAFLEHRFEVIRRRARYEYEQYTRRAHVVEGLLKAARAIGVVVDIVRNSKDVESARQSLMETLEITEEQAKAILDMRLSRLTSLEIENLQNEYSDLVRKISEVKEILEKDEKVKEIMKKEFLYLKQQYGDPRRTEVTDQSIEYNEEELIVEEDVVITLSHKGYLKSTPLNSYRSQKRGGKGITVSKLSEDDEVEFVVVAKNTSSTLFITNLGRAYVLKNYQLETTGRNTRGRHITAFLNLEDTEKIVALASLNGEGRDLVIATKSGKIKRTALKEFENATSNRGVRAIKIEPGDEIVSARVVNSEKETLIVATKMGMAIRFPVSDVRRMGRNAAGVQAIKLQPGDEVVSVDVIPPGEEGEILTVTEKGFGKRTPVQLYRIQRRGGTGLRNISDVNKTGYVVAVRYVRGDEEIVVVTRNGMMIRFPVSEIGVIGRVTKGVKLIELGDDTISKVAVVKD | not soluble
2 | MIQDIKRSSAPAAPAPVTVLKMWPNEMRSQSLEENLDAKLEQFKKEHSPVKERGNCSKTRKISENQPPPSFEVVMAKIRGIQESLKNMEDQMNEEERGKEMPDSTENSFDFSKIWQYFDQTRIEEIRALLKKRQFPDSP | not soluble
3 | MIVLVTGATAGFGECITRRFIQQGHKVIATGRRQERLQELKDELGDNLYIAQLDVRNRAAIEEMLASLPAEWCNIDILVNNAGLALGMEPAHKASVEDWETMIDTNNKGLVYMTRAVLPGMVERNHGHIINIGSTAGSWPYAGGNVYGATKAFVRQFSLNLRTDLHGTAVRVTDIEPGLVGGTEFSNVRFKGDDGKAEKTYQNTVALTPEDVSEAVWWVSTLPAHVNINTLEMMPVTQSYAGLNVHRQ | soluble
4 | PLTEAQKNKLRHLSVVTLAAKVKCIPYAVLLEALALRNVRQLEDLVIEAVYADVLRGSLDQRNQRLEVDYSIGRDIQRQDLSAIARTLQEW | not soluble
5 | MEASMERFDNAPETALAWHRQGLGAALATVVETWGSAPRRVGAQLVIGGDGRIEGSVSGGCVEGAVIVEALEALEEGQARLLEFGVSDEDAFAVGLACGGTIRVLVEPVGQVLSEVMLAELVAARASRQALAYVVDTARGTRALVRDAYPERMRMDRSGFDEDGRTFVAVHNPPLRLIVVGAVHIAQALVPMARIAGYDPVVIDPREAFASDARFPGETILHDWPDEAVAKLGLDARTALVLLTHDPKLDDPALEAALAADVFYIGALGSTRTHAKRVARMQEAGFTEAQIGRIHGPVGLDIGAAGPAEIAVAILAQMTAVLRGRA | soluble
6 | MSRKFPSFIVDAFTTKSFAGNPAAVCLIPEVFKDQEYLKIAAEFNLSETAFPVPIGSTDFKTCSQFSLRWFTPKTEVPLCGHATLATSHVLFNEVGNVNKEIKFDTQSGVLIAKRDEKGNVEMNFPEYDLASVKFNDTPNPLQGIFSEFEAPSFLFEVIKCVVPTEMIIESVVYSSKSRKLIVIVDPETTKFELEAVRIDCSKMLEIHDGSFVRGLAISLRPSNPMAQGFVDSSDEPYDYACRYFAPWVGIDEDPATGSAQCVMGPFWSKMLGKNELYAFQAFPTRGAQFRIRLQDDRVILNGPSVTVLRGELALN | not soluble
7 | MAKYSEQFKLTVVKAYLAGNIGFRKVSSQFSIDSSLLRRWVANYKSHGHTGHRKPGLRYSEAFKRSVLEHKREHGLSLRQTAAHFGIGDPGQIVIWEQQHYSNDLAPYVPKRRKSVAMPKKPYPTAPVIDDDTQKTRDQLMAELEYLRMENAYLKKLEELKEQQRRQKKKPLEHHHHHH | soluble
8 | MDCVMKGLNKITCCLLAALLMPCAGHAENEQYGANFNNADIRQFVEIVGQHLGKTILIDPSVQGTISVRSNDTFSQQEYYQFFLSILDLYGYSVITLDNGFLKVVRSANVKTSPGMIADSSRPGVGDELVTRIVPLENVPARDLAPLLRQMMDAGSVGNVVHYEPSNVLILTGRASTINKLIEVIKRVDVIGTEKQQIIHLEYASAEDLAEILNQLISESHGKSQMPALLSAKIVADKRTNSLIISGPEKARQRITSLLKSLDVEESEEGNTRVYYLKYAKATNLVEVLTGVSEKLKDEKGNARKPSSSGAMDNVAITADEQTNSLVITADQSVQEKLATVIARLDIRRAQVLVEAIIVEVQDGNGLNLGVQWANKNVGAQQFTNTGLPIFNAAQGVADYKKNGGITSANPAWDMFSAYNGMAAGFFNGDWGVLLTALASNNKNDILATPSIVTLDNKLASFNVGQDVPVLSGSQTTSGDNVFNTVERKTVGTKLKVTPQVNEGDAVLLEIEQEVSSVDSSSNSTLGPTFNTRTIQNAVLVKTGETVVLGGLLDDFSKEQVSKVPLLGDIPLVGQLFRYTSTERAKRNLMVFIRPTIIRDDDVYRSLSKEKYTRYRQEQQQRIDGKSKALVGSEDLPVLDENTFNSHAPAPSSRLEHHHHHH | not soluble
9 | MAWALPAQAEQLIYGFQAEQLEYRQGDSEDSFVWDFDALIGTDELKLVWRSEGERVQGAGGFETLENQLRLQFPVSTFFDAVVGVQASTPDGLPDRYNAVLGLKGLAPQWFEIDADLYLSDNSFFRFEGEYEAMLTNRLTLTPSLELTLPLQDDPIYNQAAGGVTLEAGLRLSYDLIDRAVSPYIGVNYERSYGGTADMIRAAGDENGAFSVVFGTRLMFLEHHHHHH | not soluble
10 | METKTVAITMGDPAGIGPEIIVKALSEDGLNGAPLVVIGCLATLKRLQAKGITPNVELRAIERVAEARFAPGIIHVIDEPLAQPEALEAGKVQAQAGDLAYRCVKRATELALRGDVQAIATAPLNKEALHLAGHNYPGHTELLATLTHSRDYAMVLYTDKLKVIHVSTHIALRKFLDTLSTARVETVIGIADTFLKRVGYVKPRIAVAGVNPHAGENGLFGDEETRILTPAITDARAKGMDVYGPCPPDTVFLQAYEGQYDMVVAMYHDQGHIPLKLLGFYDGVNITAGLPFIRTSADHGTAFDIAWTGKAKSESMAVSIKLAMQLA | soluble
11 | MDVSLESLVNSLQATRSTLLSEIEMLNDTEVNVKPRRDKWSIIQILHHLHLVEQSVTSALVYALQKNERNMTPFKDLQLTLDRTHKREAPQQMQPTETLMKKQQGIQLLEHSRQELLHALHSVIDEKDLFENGLKHPVFNDLNLYQWVQFLDLHEQRHLTQLKEAKHAILQR | not soluble
12 | MQSSKVVLLEPRTYSEAQGIADHLKGRRAVVINLQRMSTDQAVRIVDFLSGTVYAIGGDIQKIGPKTFMCTPENVDIVGAISELFGEEEETNIKRWLEHHHHHH | not soluble
13 | GSKAPPTFKVSLMDQSVREGQDVIMSIRVQGEPKPVVSWLRNRQPVRPDQRRFAEEAEGGLCRLRILAAERGDAGFYTCKAVNEYGARQCEARLEVRGE | soluble
14 | MGSDKIHHHHHHMINAKNIRFSYPRQRSLFESLNLDLPKGSITGLLGRNGEGKTTLLKLLCGQLLRKDGNLTVLTEDPRHRSVKFLSKVFLLQEEVTCPNVSIRDYFRMITPFYPSYSPEVAQEIIIAFDLNWDMKLGKVSQGQKKKAVIALALSLRTPLLLMDEPTNGLDIPSKSAFRRLMARYITEEQTVIISTHQVRDLEQIIDRIVMMDKNAIVCNRSVAELSEQFAFRQVVPGDKPIYKEGSTMGEVGVYENTTGEETPFSMELFFNGMIAEREVFNRVLNR | not soluble
15 | MSLATTVKIATISPLSGSSSNLGLQIKNGAQLAVNEYKAEFAKLGMNLSLVAYDDQADPATGTAAARRVVADKNVLAVVGTLNTGVAIPASQALSTSKVAMVSPANTGTKVTDRGLKNMNRICARDDAQGPAGADFMVSTLKVKKVYVINDKTPYGEGLSGEAEKRLKAKGVQIVQSEGVAAEERDFTAIITKIQTLKPDAIYFGGLYGQIGPFAQQLRAKGVQVPLIGGDGMDSDELAKLAGAQGANNIYFTTVAPPLDSVPAAKTMAGNFKKAFGSDVQGYGIMGYDSAKVVLQGILDAAKKNGNKAPSRAQVETAIRSGTFGNLLTGTVQFDKNGDRKAGKMYVIAIKNAQRSTAGQVNVLREGHHHHHH | soluble
16 | MAHHHHHHMSRFPEARKQSVQVTRHCGIASQLVTEVNGRNLTHLSVLEQEMLASSNVTEHSRQMMDVVQDPKTDIDDALRMVMLYALRYEKVGGNNTAQLKEMLLKRNCPMERISLIDRLLEYGGADKRLHELFRTSTGHILKIVAKTVGQFGKDIQNVLTQHVPLMKKVINRVYNGTLSEQKYPVQEVVGSPISVSAVPTIRAKDIIIVMVGGVTYSEAMLLYQINQGQVSNNVESLMNLGKNVTRLVSGDSTAKSASGEPYTEKIEARVTLLSTSMIDSKDFIHSLPS | not soluble
17 | MGSDKIHHHHHHMKVWPVKHSPLLRQPERFIARSELQALIRNVTQNLVNIKDESGQFLLRLDDGRVIDTKGWAGWEWTHGVGLYGIYQYYQQTGDIEMRDIIDRWFADRFAEGATTKNVNTMAPFLTLAYRFEETGRMAYLPWLESWAEWAMHEMPRTEQGGMQHMTLAEENHQQMWDDTLMMTVLPLAKIGKLLNRPQYVEEATYQFLLHVQNLMDRETGLWFHGWNYEGRHNFARARWARGNSWLTMVIPDFLELVDLPEGNAVRRYLITVLDAQIAALAECQDDSGLWHTLLDDPHSYLEASATAGFAYGILKAVRKRYVGQHYAGVAEKAIRGIVQNISPQGELLQTSFGTGMGSDLDFYRQIPLTSMPYGQAMAILCLTEYLRKYF | not soluble
18 | KVWAFDIQPQALNNTRCRLQEAGYSNVRLILDGHENLKQYIPKPLDAAIFNFGWLPGGDKSLTTRTETSIAALSATLSLLKENGMLIAVLYPGHENGKQEAEAIEQWAKNLPQEQFAVLRYGFTNRKNSPPYLLVFEKLRQK | not soluble
19 | MSLKTIAIDFETANEERGSACSVGLAWIEDGQIVRVEERLIRPRDMRFSPFNIAVHGIRPRDVEDAPEFPEVMEEFIDDFHGATMIAHNAAFDFSVMRASFDKYRLSYPDLSYLCSVKIARHVWPHLVSHKLNVIAHHLQLRFVHHNAAEDAVVCAAASIAAARALGVAHIRDLPEKIGEGHHHHHH | not soluble
20 | MSLADTLMSDTPFWQRKTLDEMTDAEWESLCDGCGQCCLHKLMDEDTDEIYFTNVACRQLNIKTCQCRHYERRFEFEPDCIKLTRENLPDFEWLPMTCAYRLLAEGKPLPTWHPLLTGSKAAMHGERISVRHIAVKESEVRDWQDHILNKPSWAEEGHHHHHH | not soluble
21 | MSLTPVISAYNWVPPPARGLVRDLRIRWALEELGRPYAVETVLHQDKTAYRAKQPFGQVPAYDDGEVQLFESGAIVLHIAEQDERLLPRDPAARARAIGWMFCALNTLEVPLLQLAELNIFSAGQAWTEGARPKVERWVRQRLGQLAARLGDKTYLDGETFTAGDLLVADVLRQAPDAMLAETPTLVAYRDRCTARPAFQKALAAQLADLNGPPPPGWGEGHHHHHH | soluble
22 | MQINGKAPRNKDLEPHSFELWLNAAKTNLDKYEMALIITATLGLRRGEVMGLRNESIKISHDQINDADVAQISIDMQRNTNELNGGPLKTKSSYRTIWAFGKTVDHLKYAMITADNLRQRNNIQAEKHWLWLNNDGNPLHPTHLNRLMRRVSNRSGVEVYPHLLRHYFATQAIAANKPQIDVMHYLGHKNLQMTADYTRSTKAASLNVFNSIDKFLLEHHHHHH | soluble
23 | MAPPAQPPPVAVKNTKEAWTKFMKKKAEQAVYPSKESSTLQPKYLFDASTLVLPMCFECRRASRHLEMAINLCSICRANFEAQIASRFFRHDVLLVKRKLEANQDTTNLKE | not soluble
